Measured values as given in paper PMC5814282, “Biophysical studies and NMR structure of YAP2 WW domain - LATS1 PPxY motif complexes reveal the basis of their interaction” (Oncotarget, 2018).

Columns and labels:
[1] = molecular target: WW12 (YAP2, both WW domains); assay: ITC, WW12 versus PY12; assay type: binding, human; settings: 25°C, 2 mM DTT, 2 mM EDTA
Experimental: ITC experiments were performed using the MicroCal VP-ITC titration calorimeter (MicroCal-Malvern). […] The proteins and peptides used were prepared in the same buffer containing 20 mM Tris-HCl pH 7.0 and 100 mM NaCl. Protein concentrations varying from 20 to 70 μM were titrated against peptide concentrations ranging from 0.5 to 1.8 mM at 25°C. The peptide samples were also injected into buffer as a reference to estimate the heat of dilution. In the case of WW12 vs PY12, the buffer used was 20 mM Tris-HCl pH 7.0, 100 mM NaCl, 3% glycerol, 2 mM DTT and 2 mM EDTA. All samples were degassed and spun before the experiment. The binding isotherms were analyzed employing a model that considered a single ligand binding site implemented in Origin 7 (OriginLab).

WW12 = assay: Co-expression, affinity and gel filtration chromatography of WW12-PY12; assay type: binding, human; settings: WW12 and PY12 co-expressed in E. coli
Experimental: Cells were harvested by spinning at 4,000 g for 20 min and lysed by sonication in buffer containing 50 mM Tris-HCl pH 7.0, 200 mM NaCl, 5% glycerol, 2 mM DTT, 0.5% Triton X-100 and 1mM PMSF. […] The GST tag was cleaved overnight using PreScission Protease. In the case of WW12-PY12 complex, an additional Ni-NTA chromatography step was performed, as PY12 contained a His-tag. The eluted proteins were further purified using FPLC Superdex 75 gel filtration in buffer containing 20 mM Tris-HCl pH 7.0, 100 mM NaCl, 5% glycerol and 2 mM DTT. The purity and quality of the purified proteins were assessed using SDS polyacrylamide gel electrophoresis (SDS-PAGE) and dynamic light scattering (DLS).

Kd ([1]; ITC VP-ITC, 20 mM Tris-HCl pH 7.0, 100 mM NaCl, 3% glycerol, single ligand binding site model): 9.6 µM
B1: PY12: LATS1 region PY12 (containing both PPxY motifs; aa 361-567) (protein)
chain: NVVPAGTVNRQPPPPYPLTAANGQSPSALQTGGSAAPSSYTNGSIPQSMMVPNRNSHNMELYNISVPGLQTNWPQSSSAPAQSSPSSGHEIPTWQPNIPVRSNSFNNPLGNRASHSANSQPSATTVTAITPAPIQQPVKSMRVLKPELQTALAPTHPSWIPQPIQTVQPSPFPEGTASNVTVMPPVAEAPNYQGPPPPYPKHLLHQN
modifications: left off: His-tag, end not stated, kept
-TΔS ([1]; ITC, pH 7.0, 3% glycerol): 33.4 kcal/mol
ΔG ([1]; ITC, pH 7.0, 3% glycerol): -6.8 kcal/mol
ΔH ([1]; ITC, pH 7.0, 3% glycerol): -40.2 kcal/mol
complex formation (WW12): formed a tight complex
